We go through 25 molecules from patent publication US20240108738A1 (Bicycle, published 2024).

Numbered stars: 1 amine (or outer) side, 2 acyl side, 3 side chain; on linkers, the order of the positions; unused ones are H or OH. Bridge positions count the residues as written; N and C are the ends. Square brackets hold non-standard residues; d marks the D form. Ends that are not written are not given here. TATA = O=C(CC[*:1])N1CN(C(=O)CC[*:2])CN(C(=O)CC[*:3])C1; Trp(1-Me) = Cn1cc(C[C@H](N)C(=O)O)c2ccccc21; cisHyp = O=C(O)[C@@H]1C[C@H](O)CN1; Hyp = O=C(O)[C@@H]1C[C@@H](O)CN1; tBuAla = CC(C)(C)C[C@H](N)C(=O)O; Cha = N[C@@H](CC1CCCCC1)C(=O)O; Agb = N=C(N)NCC[C@H](N)C(=O)O; Cba = N[C@@H](CC1CCC1)C(=O)O; Chg = N[C@H](C(=O)O)C1CCCCC1; Tle = CC(C)(C)[C@H](N)C(=O)O; NMeA = CN[C@@H](C)C(=O)O; Nle = CCCC[C@H](N)C(=O)O; Sar = CNCC(=O)O

The term Kd denotes the free concentration of one partner at which half of the binding sites on the other are occupied at equilibrium, for simple one-to-one binding. Low readings indicate a tighter complex, high ones a looser complex.

B1: BCY18324 (peptide)
peptide: ACNLQAPCMLTG[Agb]VCA-NH2
modifications: linker 2-8-15 via TATA; N-terminus assumed
SMILES: CSCC[C@@H]1NC(=O)[C@@H]2CSCCC(=O)N3CN(CN(C3)C(=O)CCSC[C@@H](C(=O)N[C@@H](C)C(N)=O)NC(=O)[C@H](C(C)C)NC(=O)[C@H](CCNC(=N)N)NC(=O)CNC(=O)[C@H]([C@@H](C)O)NC(=O)[C@H](CC(C)C)NC1=O)C(=O)CCSC[C@H](NC(=O)[C@H](C)N)C(=O)N[C@@H](CC(N)=O)C(=O)N[C@@H](CC(C)C)C(=O)N[C@@H](CCC(N)=O)C(=O)N[C@@H](C)C(=O)N1CCC[C@H]1C(=O)N2
notes: scaffold TATA
B2: BCY18315 (peptide)
peptide: ACNLQAPC[Cba]LTGKVCA-NH2
modifications: linker 2-8-15 via TATA; N-terminus assumed
SMILES: CC(C)C[C@@H]1NC(=O)[C@H](CC(N)=O)NC(=O)[C@@H](NC(=O)[C@H](C)N)CSCCC(=O)N2CN3CN(C2)C(=O)CCSC[C@H](NC(=O)[C@@H]2CCCN2C(=O)[C@H](C)NC(=O)[C@H](CCC(N)=O)NC1=O)C(=O)N[C@@H](CC1CCC1)C(=O)N[C@@H](CC(C)C)C(=O)N[C@@H]([C@@H](C)O)C(=O)NCC(=O)N[C@@H](CCCCN)C(=O)N[C@@H](C(C)C)C(=O)N[C@H](C(=O)N[C@@H](C)C(N)=O)CSCCC3=O
notes: scaffold TATA
B3: BCY18309 (peptide)
peptide: ACNLQA[Sar]CMLTGKVCA-NH2
modifications: linker 2-8-15 via TATA; N-terminus assumed
SMILES: CSCC[C@@H]1NC(=O)[C@@H]2CSCCC(=O)N3CN(CN(C3)C(=O)CCSC[C@@H](C(=O)N[C@@H](C)C(N)=O)NC(=O)[C@H](C(C)C)NC(=O)[C@H](CCCCN)NC(=O)CNC(=O)[C@H]([C@@H](C)O)NC(=O)[C@H](CC(C)C)NC1=O)C(=O)CCSC[C@H](NC(=O)[C@H](C)N)C(=O)N[C@@H](CC(N)=O)C(=O)N[C@@H](CC(C)C)C(=O)N[C@@H](CCC(N)=O)C(=O)N[C@@H](C)C(=O)N(C)CC(=O)N2
notes: scaffold TATA
B4: BCY18288 (peptide)
peptide: ACDLTTHNCQ[Trp(1-Me)]GICA-NH2
modifications: linker 2-9-14 via TATA; N-terminus assumed
SMILES: CC[C@H](C)[C@@H]1NC(=O)CNC(=O)[C@H](Cc2cn(C)c3ccccc23)NC(=O)[C@H](CCC(N)=O)NC(=O)[C@@H]2CSCCC(=O)N3CN(CN(C3)C(=O)CCSC[C@@H](C(=O)N[C@@H](C)C(N)=O)NC1=O)C(=O)CCSC[C@H](NC(=O)[C@H](C)N)C(=O)N[C@@H](CC(=O)O)C(=O)N[C@@H](CC(C)C)C(=O)N[C@@H]([C@@H](C)O)C(=O)N[C@@H]([C@@H](C)O)C(=O)N[C@@H](Cc1c[nH]cn1)C(=O)N[C@@H](CC(N)=O)C(=O)N2
notes: scaffold TATA

In the experiment the target is T1, Human NKp46 Fc tag (Acro Biosystems, NC1-H5257) (human, UniProt O76036 22-255).
T1 construct: bought; also called Fc-tagged human NKp46
T1 sequence (O76036 22-255 limits assumed): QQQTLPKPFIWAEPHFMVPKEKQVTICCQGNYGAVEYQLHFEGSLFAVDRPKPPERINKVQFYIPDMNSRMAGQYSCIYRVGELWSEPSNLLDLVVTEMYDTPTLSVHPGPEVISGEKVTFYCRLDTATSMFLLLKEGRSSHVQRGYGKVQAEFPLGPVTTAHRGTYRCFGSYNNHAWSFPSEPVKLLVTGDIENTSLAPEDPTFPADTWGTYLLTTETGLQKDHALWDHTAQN
The experiment is described as follows: SPR Method 1 and/or 2. As for the experimental part: The SPR analysis was run at 25° C. and a flow rate of 50 μl/min with 60 seconds association and 200-400 seconds dissociation time. Data were corrected for DMSO excluded volume effects. All data were double-referenced for blank injections and reference surface using standard processing procedures and data processing and kinetic fitting were performed using Scrubber software, version 2.0c (BioLogic Software). Data were fitted using simple 1:1 binding model allowing for mass transport effects where appropriate.
For analysis of peptide binding, a Biacore 8k+ instrument was used with a CM5 chip (Cytiva). All experiments were carried out at 25° C. Anti-human IgG (Fc) antibody (Cytiva) was immobilized on all flow cells by standard amine coupling chemistry. The running buffer was HBS-N(Cytiva, 10 mM HEPES, 0.15 M NaCl, pH 7.4) and the flow rate was 10 μL/min. The carboxymethyl dextran surface was activated with a 1:1 ratio of 0.4 M 1-ethyl-3-(3-dimethylaminopropyl) carbodiimide hydrochloride (EDC)/0.1 M N-hydroxy succinimide (NHS) (Cytiva) for 420s. […] Residual activated groups were blocked with a 420 s injection of 1 M ethanolamine (pH 8.5). The final surface density was 3000-5000 RU. Fc-tagged human NKp46 was diluted to 0.1 μM in HBS-N and was captured on flow cell 2 only of the sensor chip at a flow rate of 10 μL/min to 500-1000 RU. The buffer was then changed to PBS-P+(Cytiva) supplemented with 2% DMSO. […] The flow rate was 50 μL/min with 60 s association and 400 s dissociation. Data were corrected for DMSO volume exclusion effects. All data were double-referenced against blank injections and reference surface response using standard processing procedures. Data processing and kinetic fitting was performed using Biacore Insight Evaluation Software with Extended Screening and Characterization Extension (Cytiva). Data were fitted using steady state affinity 1:1 binding model to determine KD. Data were fitted using kinetic 1:1 binding model to determine kinetic constants where appropriate.
For ACNLQAPCM[Cba]TGKVCA-NH2 (linker 2-8-15 via TATA, scaffold TATA) [BCY18319], the Kd was found to be 991 nM.
The figure for ACNLQA[cisHyp]CMLTGKVCA-NH2 (linker 2-8-15 via TATA, scaffold TATA) [BCY18310] is 802 nM.
The figure for ACNLQAPCMLTGKVCA-NH2 (linker 2-8-15 via TATA; also: scaffold TATA, TATB or TBMT, scaffold TATA) [BCY15099] is 1120 nM; for ACNLQAPCMLTGKACA-NH2 (linker 2-8-15 via TATA; also: scaffold TATA, TATB or TBMT, scaffold TATA) [BCY18305] it is 907 nM; for ACNLQAPCMLT[dA]KVCA-NH2 (linker 2-8-15 via TATA (inferred), scaffold TATA) [BCY18322] it is 466 nM.
In the case of ACNLQAPCLLTGKVCA-NH2 (linker 2-8-15 via TATA; also: scaffold TATA, TATB or TBMT, scaffold TATA) [BCY18313] it was 2750 nM; in that of ACNLQAPCMLTGRVCA-NH2 (linker 2-8-15 via TATA; also: scaffold TATA, TATB or TBMT, scaffold TATA) [BCY18323], 2340 nM.
For the molecule ACNLQAPCMFTGKVCA-NH2 (linker 2-8-15 via TATA; also: scaffold TATA, TATB or TBMT, scaffold TATA) [BCY18317], the Kd turned out to be 2080 nM.
In the case of ACNLQAPCMLTAKVCA-NH2 (linker 2-8-15 via TATA; also: scaffold TATA, TATB or TBMT, scaffold TATA) [BCY18303] it was 2750 nM; in that of ACNLQA[Hyp]CMLTGKVCA-NH2 (linker 2-8-15 via TATA, scaffold TATA) [BCY18311], 795 nM; in that of ACNLQA[NMeA]CMLTGKVCA-NH2 (linker 2-8-15 via TATA, scaffold TATA) [BCY18312], 1810 nM.
Molecule ACDLTTHNCQWG[tBuAla]CA-NH2 (linker 2-9-14 via TATA, scaffold TATA) [BCY18290] gave a Kd of 4890 nM.
The figure for ACDLTTHNCQWG[Chg]CA-NH2 (linker 2-9-14 via TATA, scaffold TATA) [BCY18291] is 2850 nM.
In the case of ACN[tBuAla]QAPCMLTGKVCA-NH2 (linker 2-8-15 via TATA, scaffold TATA) [BCY18307] it was 2110 nM; in that of ACNLQAPCMLTGK[Tle]CA-NH2 (linker 2-8-15 via TATA, scaffold TATA) [BCY18325], 854 nM; in that of B1, 1500 nM.
In the case of Ac-CNLQAPCMLTGKVC-NH2 (linker 1-7-14 via TATA (inferred), scaffold TATA) [BCY18293] it was 3380 nM; in that of B2, 878 nM.
Molecule B3 had a Kd of 2570 nM.
The figure for Ac-ACNLQAPCMLTGKVCA-NH2 (linker 2-8-15 via TATA (inferred), scaffold TATA) [BCY18294] is 3260 nM; for ACDLTTHNCQWG[Tle]CA-NH2 (linker 2-9-14 via TATA, scaffold TATA) [BCY18289] it is 572 nM; for ACNLQAPCM[tBuAla]TGKVCA-NH2 (linker 2-8-15 via TATA, scaffold TATA) [BCY18320] it is 622 nM.
In the case of B4 it was 354 nM; in that of ACNLQAPC[Nle]LTGKVCA-NH2 (linker 2-8-15 via TATA, scaffold TATA) [BCY18314], 3150 nM.
Molecule ACNLQAPCM[Cha]TGKVCA-NH2 (linker 2-8-15 via TATA; also: Cha: filing contradicts itself on L or D, scaffold TATA) [BCY18321] had a Kd of 548 nM.
